The values below come from a protein production outcome set (Wang et al. 2014).
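Also: failed if final PepcDB status was selected cloned or expressed and not failed if soluble or beyond.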

This data set can be described thus: label from the status in PepcDB records.
As for “MILSLCCLGSWPAILTLLERRGRLPQHTFLDFATANLLAAIVIAFSLGEIGKSTFLKPDFTTQLPQDNWPSVLLAVAGGVLLSIGNLATQYAFAFVGLSVTEVITASITVVIGTTLNYFLDNKINKAEILFPGVGCFLIAVFLGAAVHASNAADVKEKLKSLPSEDLYSSIENGEDKPEIEKTDVESQEKLAEKAKAGTAGFYVELENKRAIKVFGKSIMIGLFITLFAGISLSLFSPAFNLATNDQWSTLPKGVPKLVVYTAFFYFSIAGFLISLILNLIFLYRPMVGLARSSLKKYIYDSKGRGWAVFAGFLCGFGNGLQFMGGQAAGYAAADSVQALPLVSTFWGIVLFGEYRKSSKRTYALLVSMLAMFVAAVAILMASSGHRK”, the protein production entry is “failed”. To “MRVVLQMAPPIASGRGGQGLITCPGHKERRVASLNRIAMARSSRRMIKDLGPEGLEVAEISGKWGQQFPFRSYRRFIYPEYDICAGPYCDAAGEIEQFDLILANQVWEHLDRPYEATLNVLEMLRTGGHFWLAVPFFVPFHAAPMDNSRWSARGLRNFLIECGFAEEEIRAEQWGNRHAALRNLERPWPPVYDPETDPLDNDPDFPICAWAIARKT” belongs “failed”; to “MGVLWNSIQSVLVVVLIMILGFVLRRAGWFDDKFAGTISKFIKNIALPASIFVSVLSRLTRGQLGSFAGYLAYAFLAVIIGYLIAFALVKVMRVRPGRKGIFINAIVNANTIFIGLPLNIALFGDKSMTYFLVYYIVNTVSTWAFGVFLISNDDPTKSKEKTHNKIDWKKVIPMPLVGFLVALIFLLLNIPIMKVSFVSSTLTYVGNLVTPLSLIYIGIVLADAGLKSIRFDRDTVVALVGRFILSPIVMILVLMVAGNLGASFPTLASQTLIVQSATPMLAVLPILANEAHGDVEYATNIVTTSTVLFIVVVPVLMTLIQYI”, “failed”.

In the case of “MDDETLRLQFGHLIRILPTLLEFEKKGYEPSLAEIVKASGVSEKTFFMGLKDRLIRAGLVKEETLSYRVKTLKLTEKGRRLAECLEKCRDVLGS”, the protein production result is “not failed”. For “MAQYQALYRQWRPRTFAEVVGQEHITRTLRNALRTGRLVHAYLFCGPRGTGKTSTAKILARAINCLAPREGEPCNECANCRRILAGNSLDVLEMDAASNRGIDEIRNLIEKIPLGPVEGRYKVYIIDEVHMLTQEAFNALLKTLEEPPAHAVFILATTEPRKVLPTILSRCQRFDFHPLTVQAIAGRLQEVAAANGVEIEPGALSLLSRKAAGGLRDALSLLDQILASGTRGPVTAGQVAVTLGTARLDTLLALTDALATGDGAGVLNLVDKALASGIEPRRLLEDLLDHTRNLLLLKVDPGAGSLTGLLPEEVEQVAAQARQFDHHRLLDLMERLQQGGAALRRSNQPRVILEMTLAGFLVAPGPSLEGLARRVAELEARLAALEGSAPSRTREKVATRNQGEGGRPPVAPGSRADAGGQERGNSGPLEAPGAGSPAGRARVINRSREFPQAAGRDRAGLAGPETATGLEPGSPASPGLELAVVQEHWPEVLAAARRESIQLQAFLREGEPVAIDGDTLTLAVKADFHRGMLEQPGNRQKVEKALAAVFGRPLKVVITSGKPSPPGDTGDTLTRLVNFFGADKVEIKD”, the protein production entry is recorded as “failed”. To “VSDMNGLGFKPFDLVIPFAVRKGEITGEVHMPSGKTATPEIVDNKDGTVTVRYAPTEVGLHEMHIKYMGSHIPESPLQFYVNYPNSGS” belongs “not failed”. To “MLVLSYILLFASALFAWNMGSHYSGAVMGMAYGSKSLTIRQATVIAATFAFLGTITASSGVVHTYAFSLVGTTTIRQLTAALLGASVAILISTILKLPASTIQVYTFSLLFVGLASNIKLMYGGIEIVLSMWILMPLAAMLLSYLLAPKLVSKLADDSRKLKIIIIGSSVFSSFTLGSNDVSSAISPLVKVGILTGIVPYVFGGFFIGLGLITWGQRLIRRVGTEVVKTNAPLAAAAQLTEAIVIISGNLVGYNASINQTIIMSIYGAKRSMKSHVVTPMIFRSILLNWTVSSLISAVFGLFFLFILNLYI” belongs “failed”. In the case of “TIEARTAQSTPSAPPQKVMCVSMGSTTVRVSWVPPPADSRNGVITQYSVAYEAVDGEDRGRHVVDGISREHSSWDLVGLEKWTEYRVWVRAHTDVGPGPESSPVLVRTDEDVPSGPPRKVE” it was “not failed”; in that of “SAALAGVFVWDEERIQEEELQRSINEMKRLEEMSNMFQSSGVQHHPPEPKAQTEGNEDSEGKEQRWEMVMDKKHFKLWRRPITGTHLYQYRVFGTYTDVTPRQFFNVQLDTEYRKKWDALVIKLEVIERDVVSGSEVLHWVTHFPYPMYSRDYVYVRRYSVDQENNMMVLVSRAVEHPSVPESPEFVRVRSYESQMVIRPHKSFDENGFDYLLTYSDNPQTVFPRYCVSWMVSSGMPDFLEKLHMATLKAKNMEIKVKDYISAKPLEMSSEAKATSQSSERKNEGSCGPARIEYA”, “not failed”; in that of “MKRLILPIACGICTVTSDAQTDKQPHPNVIFIYADDLGYKDLSCTGSRFYETPHIDKLAREGVCFTQSYAACPVSSPSRAALLTGKYPARINLTDYIPGDRAYGPHKNQRLASLPFNLHLSKDEITMAEAFRQNGYSTFMAGKWHLAESAEYYPEQNGFDINIGGNNTGHPSKGYFSPYGNPQLKDGPEGEYLTDRLTDEVIRYISEPKEKPFFVYLSYYTVHLPLQAKAEKIAKYRRKLSRAVPADSSFVKKGETYHKLVQDIPAYAAMVESLDENIGRLLDTLHRSGLDERTIVVFTSDNGGMATSNTTRNIPTSNLPLRAGKGYLYEGGIKVPAIIRWSGHLKGRQVSDTPIIGTDYYPTLLDLCGLPLLPGQHVDGVSMKPVLQGGRLSRPSLFWHYPHYSGGLGGRPSAAIREGDYKLIEFFEDHHVELYNVIQDESEEKDLSQIYPEIADGLRKKLYLWYKEVGARMPVDNPHYVSPVKDSDSFENKLEHHHHHH”, “failed”. Take “YKGQYFTPPHIAQAMAAMTLMDCHSIIEKRGFMKLQEPTCGSGVMIIGSYNHLRQEHFNPQQQLWVRAQDLDFTTAMMCYIQMTLLHIPGEVIIGNTLT”: the protein production result was “failed”. To “MTIPTSYLNHTDAEAARKARATYRDGLVAPTSGIAPGFTQANMIVLPRDWAFDFLLYAQRNPKPCPVLDVSDPGSPTTLLAPGADLRTDLPLYRIWRDGKLAEETADATSAWAERDDLVAFLIGCSFTFETPMVEAGIEIRHMTDKSNVPMYLTNRPCRPAGRLKGNMVVSMRPIPASRVADAATISGRFPAVHGAPVHVGAPEQIGISDLSKPDFGDAVRIEPGEVPVFWACGVTPQAAVMASGVPFAITHAPGHMFITDIPDTAYHALEHHHHHH” belongs “not failed”; to “MLNFTVGPVMSSEEVRAIGAEQVPYFRTTEFSSTMLENEKFMLEYAKAPEGSKAVFMTCSSTGSMEAVVMNCFTKKDKVLVIDGGSFGHRFVQLCEIHEIPYVALKLEHGKKLTKEKLYEYDNQNFTGLLVNVDETSTAVLYDTMMIGEFCKKNNMFFVCDCVSAFLADPFNMNECGADVMITGSQKVLACPPGISVIVLAPRGVERVEKSKVRTMYFDLKDALKNQERGQTPFTPAVGILLQINERLKEIKKHGGADAEVARIASQAADFRAKIKDLPFELVSESPANGVTSVHPTTANAYDIFLKLKDEYGIWICPNGGEMKDTIFRVGHIGALTHEDNTTLVNAFKDLQKRNLL”, “not failed”. In the case of “MPTPAYIKIVGQTQGNITAGAFTADSVGNVFQQGHEDQILVQEIKHEVTTPTDPQSGQPSGQRVHKPFIFTSSLNKATPLMYQALATGEMLPTVEVSWYRTSSEGKQEHFFTTTLEDATIVSINTVLPHALDKDNENYTQLVEVSLAYRKITWAHDVANTEGSDDWRAPAA” it was “failed”. For “MDPSRLLRTERERKAVMPPFSPGPLPIDPVLPALLEALASHGRAVLIAPPGAGKTTRVPPALLGALWLGGQKVVMLEPRRLATRAAARRMAFEAGEAVGQRFGFRVRGESRSGPLTRVEVMTEGILTRRIQDDPELAGVGCVILDEFHERGLQGDLAFALLREIQGALRPDLRLLVMSATLDGAAIAALMDDAPVIESHGRAFPVTITHGERPAARDLGPAMARTILRALEDEPGSVLAFLPGEREIAAVAGALARALPADTVLRPLYGALPPAEQDAAISPCPPGQRKVVLATDIAETSLTIEGVRIVVDSGLRRSPRFDPQTGLSRLDTVRISQAGAEQRRGRAGRLEPGVCLRLWPEAEHRALPAQETPEILAADLAPLALELARWGARDAAALCWPTPPPPGPLAQARDLLTSLGALEPAGGLSAHGAAMAALPLHPRLAHMVLAAKADGADDGALACLLAALLAERDILRPGPGAARDRDLTTRLEILIGQGRRAPAGQILRQPTLGAVRDEAARLRQLAGIAASASPEPARCGRVLARAYPDRIAQARPGQPGRFLLSSGRGALIDVGDPLAAAAFLAVAEVDGAGSEARVFLAAPLDRADLEELFDEALRPCETVTWDPRAEAVVARVERRLGALVFESRDLPDRADPARTTPAVCAGIRRLGLGCLPWTRETDRLRARVAFLHRVHSADDWPDLSDDALLASLADWLGPWLDGITRRSAFARIDLMAALKALIGWRRLADLDRLAPAQMDVPSGVKVALDYEVPDGPVLAARVQQLFGLTRTPAVLDGGHPVLVHLLSPAGRPLQVTRDLAGFWKGSYAEVRKDMRGRYPKHPWPEDPTGAEATNRVKPRGQ”, the protein production entry is given as “failed”. In the case of “MTNDFKKEKKEDYFVNLKAISTEVLQEKVQDNAWVIVDTRLNDAYNGWKLDGVKRGGHIKGAVDFSANWLSVYSDRKDEVLEQALKTKRIDLDKNIVLYDANGKDALVVADYLSKKGYKYLYKYDIKQWADDENLPMERYKNYQMIVPLEHHHHHH” it was “not failed”; in that of “MSRSVLQPSQQKLAEKLTILNDRGVGMLTRLYNIKKACGDPKAKPSYLIDKNLESAVKFIVRKFPAVE”, “failed”; in that of “MKPSKYSVKAQGHGSSYMPMEVTLSKDKIEDINVDASGETRGVADEVFNRLPKLIVDNQTLNIDAVSGATISSHGVIDGVAQTINEAGGNSEEWKRRAKPRKVLLKKTKNMILMLEHHHHHH”, “not failed”. In the case of “IQAGILANSFHVKLSDETQMVVKYQNQPFVNGTFGNWQILEAETINGINQILWRNPDIEEVGIWNTDANWNWISSETWSANSLKTLNAEVTFQIDINNDQLIG” it was “failed”; in that of “MFPNSILGRPPFTPTHQQHNNFFALSPTLYSHQQLIDAQFNFQNVDLSRAVSLQPLTYGTVSPIQTSTSPLFRGRKRISDEKAFRLDGKRQRFHSPHQEPTIINQLVPLSGDRRYSMPPLFHTHYVPEIVRCVPPLREIPLLEPREITLPEAKDKLSQQILELFETCQQQASDLKKKELCRAQLQREIQLLFPQSRLFLVGSSLNGFGARSSDGDLCLVVKEEPCFFQVNQKTEARHILTLVHKHFCTRLSGYIERPQLIRAKVPIVKFRDKVSCVEFDLNVNNTVGIRNTFLLRTYAYLENRVRPLVLVIKKWASHHEINDASRGTLSSYSLVLMVLHYLQTLPEPILPSLQKIYPESFSTSVQLHLVHHAPCNVPPYLSKNESSLGDLLLGFLKYYATEFDWNTQMISVREAKAIPRPDDMEWRNKYICVEEPFDGTNTARAVHEKQKFDMIKDQFLKSWQRLKNKRDLNSVLPLRAATLKR”, “failed”; in that of “MLTFAAAVLFLIITPGPGVMTTAGFGAAYGFRASLSYVVGLFIGTNLVMLAVMTGLAAVLLSVPGLRLVLLVLSVGYLLYLAALIALAGARVAFIEARSAPGVMRGVLLQAINPKAYAVNTSLITGFNYAPDAFLFEMFTKALILNAIWIPIHLAWLWAGAALHRLNLPHSTQRAINILMALSMLGVVALALWSASRVKA”, “failed”. Turning to “MTKVNPYAAGARGLCPHCGEGYLFDGFLKVAPRCEACGFELGKHETGDGAATFVILIAGAICAFGALFSMFAWNWPVWVSLVVWLPAVVAISLGLMRPAKGLMVAAQIAQKASEAGRDHV”, the protein production result was “failed”.
